Consider 16 molecules from US20240132591A1 (PANDION OPERATIONS, published 2024).

Sequences and labels used below:
T1: Human MAdCAM (human, UniProt Q13477 19-317, limits assumed)
T1 construct: also called huMAdCAM; human MAdCAM-1
T1 sequence (looked up): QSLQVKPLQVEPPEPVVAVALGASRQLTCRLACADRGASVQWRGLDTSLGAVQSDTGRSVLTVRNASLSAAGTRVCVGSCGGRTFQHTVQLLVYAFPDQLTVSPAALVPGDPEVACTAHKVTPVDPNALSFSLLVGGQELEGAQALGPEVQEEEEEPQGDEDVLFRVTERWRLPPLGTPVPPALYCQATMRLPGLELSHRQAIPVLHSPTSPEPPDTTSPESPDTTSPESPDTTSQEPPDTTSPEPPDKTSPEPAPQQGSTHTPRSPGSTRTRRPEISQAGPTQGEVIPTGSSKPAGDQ

B1: MIAB148 (antibody, human IgG1, kappa)
heavy: EVQLLESGGGLVQPGGSLRLSCAASGFTFSDFWMHWVRQAPGKGLEWISYISGDSGYTNYADSVKGRFTISRDNSKNTLYLQMNSLRAEDTAVYYCARDRPYYYYMDVWGKGTTVTVSSASTKGPSVFPLAPSSKSTSGGTAALGCLVKDYFPEPVTVSWNSGALTSGVHTFPAVLQSSGLYSLSSVVTVPSSSLGTQTYICNVNHKPSNTKVDKKVEPKSCDKTHTCPPCPAPEAAGAPSVFLFPPKPKDTLMISRTPEVTCVVVDVSHEDPEVKFNWYVDGVEVHNAKTKPREEQYNSTYRVVSVLTVLHQDWLNGKEYKCKVSNKALPAPIEKTISKAKGQPREPQVYTLPPSREEMTKNQVSLTCLVKGFYPSDIAVEWESNGQPENNYKTTPPVLDSDGSFFLYSKLTVDKSRWQQGNVFSCSVMHEALHNHYTQKSLSLSPGGGGGSAPTSSSTKKTQLQLEHLLLDLQMILNGINNYKNPKLTRMLTFKFYMPKKATELKHLQCLEEELKPLEEALNLAPSKNFHLRPRDLISDINVIVLELKGSETTFMCEYADETATIVEFINRWITFSQSIISTLT
light: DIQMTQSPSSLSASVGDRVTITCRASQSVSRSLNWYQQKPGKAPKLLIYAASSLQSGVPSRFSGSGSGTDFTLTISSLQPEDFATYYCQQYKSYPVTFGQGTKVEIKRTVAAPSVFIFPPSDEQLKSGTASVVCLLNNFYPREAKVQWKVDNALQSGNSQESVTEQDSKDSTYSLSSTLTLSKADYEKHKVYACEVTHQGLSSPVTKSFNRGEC
B2: MIAB177 (antibody, human IgG1, kappa)
heavy: B1 heavy with I48V, Y50A, D54S, S55G, Y57S, N59Y
light: DIQMTQSPSSLSASVGDRVTITCRASQSVSRSLAWYQQKPGKAPKLLIYAASSLQSGVPSRFSGSGSGTDFTLTISSLQPEDFATYYCQQYKSYPVTFGQGTKVEIKRTVAAPSVFIFPPSDEQLKSGTASVVCLLNNFYPREAKVQWKVDNALQSGNSQESVTEQDSKDSTYSLSSTLTLSKADYEKHKVYACEVTHQGLSSPVTKSFNRGEC
notes: also called MIAB177-001
B3: MIAB170 (antibody, human IgG1, kappa)
heavy: B1 heavy with Y105W
light: B2 light
B4: MIAB183 (antibody, human IgG1, kappa)
heavy: B1 heavy with D31S, F32Y, I48V, Y50A, D54S, S55G, Y57S, N59Y
light: B2 light with R31S
notes: also called MIAB183-001
B5: MIAB141 (antibody, human IgG1, kappa)
heavy: B1 heavy
light: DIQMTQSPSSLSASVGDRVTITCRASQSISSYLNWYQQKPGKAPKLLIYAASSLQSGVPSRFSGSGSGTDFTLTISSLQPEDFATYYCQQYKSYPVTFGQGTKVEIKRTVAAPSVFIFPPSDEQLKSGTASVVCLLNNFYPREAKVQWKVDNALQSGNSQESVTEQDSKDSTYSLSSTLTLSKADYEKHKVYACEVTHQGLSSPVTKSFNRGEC
notes: LCDR1 germlined
B6: MIAB182 (antibody, human IgG1, kappa)
heavy: B1 heavy with D31S, F32Y, I48V, Y50A, D54S, S55G, Y57S, N59Y
light: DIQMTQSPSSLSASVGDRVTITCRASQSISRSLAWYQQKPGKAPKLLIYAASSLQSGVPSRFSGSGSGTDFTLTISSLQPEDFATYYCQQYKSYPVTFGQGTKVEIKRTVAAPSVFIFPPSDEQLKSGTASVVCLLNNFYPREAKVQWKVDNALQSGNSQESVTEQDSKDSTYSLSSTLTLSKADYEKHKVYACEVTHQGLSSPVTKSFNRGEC
notes: also called MIAB182-001
B7: MIAB184 (antibody, human IgG1, kappa)
heavy: B1 heavy with D31S, F32Y, I48V, Y50A, D54S, S55G, Y57S, N59Y
light: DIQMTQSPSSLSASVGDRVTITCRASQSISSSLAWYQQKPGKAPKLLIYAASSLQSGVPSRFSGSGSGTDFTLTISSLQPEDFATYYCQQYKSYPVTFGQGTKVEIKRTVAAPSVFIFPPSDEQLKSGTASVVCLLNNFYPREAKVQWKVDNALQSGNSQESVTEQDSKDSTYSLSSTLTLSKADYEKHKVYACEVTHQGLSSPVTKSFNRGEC
notes: also called MIAB184-001
B8: MIAB178 (antibody, human IgG1, kappa)
heavy: B1 heavy with D31S, F32Y, Y50A, D54S, Y57S, N59Y
light: B2 light
notes: also called MIAB178-001
B9: MIAB151 (antibody, human IgG1, kappa)
heavy: B1 heavy
light: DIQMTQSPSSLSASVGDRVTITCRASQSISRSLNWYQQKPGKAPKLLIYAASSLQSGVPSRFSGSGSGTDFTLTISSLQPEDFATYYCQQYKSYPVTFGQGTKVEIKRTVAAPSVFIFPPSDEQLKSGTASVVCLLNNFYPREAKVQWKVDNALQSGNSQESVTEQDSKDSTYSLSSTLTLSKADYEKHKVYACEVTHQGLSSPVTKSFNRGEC
B10: MIAB175 (antibody, human IgG1, kappa)
heavy: B1 heavy with D31S, F32Y
light: B2 light
notes: also called MIAB175-001
B11: MIAB139 (antibody)
heavy: B1 heavy
light: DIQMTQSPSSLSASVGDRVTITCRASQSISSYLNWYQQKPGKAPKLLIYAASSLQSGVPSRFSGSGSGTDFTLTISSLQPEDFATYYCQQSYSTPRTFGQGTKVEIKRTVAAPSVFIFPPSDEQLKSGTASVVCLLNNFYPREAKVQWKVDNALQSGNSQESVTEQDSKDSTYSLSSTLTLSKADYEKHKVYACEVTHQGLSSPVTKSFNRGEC
B12: MIAB129 (antibody, human IgG1, kappa)
heavy: B1 heavy with Y102G
light: B2 light
B13: MIAB158 (antibody, human IgG1, kappa)
heavy: B1 heavy
light: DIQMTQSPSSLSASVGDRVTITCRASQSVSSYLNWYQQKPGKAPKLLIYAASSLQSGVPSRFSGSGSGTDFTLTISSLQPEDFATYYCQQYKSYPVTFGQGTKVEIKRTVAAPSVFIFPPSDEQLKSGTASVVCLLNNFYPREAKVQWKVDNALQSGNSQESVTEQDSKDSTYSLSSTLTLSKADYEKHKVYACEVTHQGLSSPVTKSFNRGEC
B14: MIAB155 (antibody, human IgG1, kappa)
heavy: B1 heavy
light: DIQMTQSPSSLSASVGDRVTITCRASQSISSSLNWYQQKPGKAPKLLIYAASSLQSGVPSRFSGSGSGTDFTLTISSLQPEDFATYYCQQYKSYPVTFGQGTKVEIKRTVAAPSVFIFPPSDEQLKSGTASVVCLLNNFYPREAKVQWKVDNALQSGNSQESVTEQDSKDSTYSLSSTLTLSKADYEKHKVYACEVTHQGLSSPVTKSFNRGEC
B15: MIAB204 (Fc fusion)
chain: APTSSSTKKTQLQLEHLLLDLQMILNGINNYKNPKLTRMLTFKFYMPKKATELKHLQCLEEELKPLEEALNLAPSKNFHLRPRDLISDINVIVLELKGSETTFMCEYADETATIVEFINRWITFSQSIISTLTGGGGSGGGGSGGGGSGGGGSDKTHTCPPCPAPEAAGAPSVFLFPPKPKDTLMISRTPEVTCVVVDVSHEDPEVKFNWYVDGVEVHNAKTKPREEQYNSTYRVVSVLTVLHQDWLNGKEYKCKVSNKALPAPIEKTISKAKGQPREPQVYTLPPSREEMTKNQVSLTCLVKGFYPSDIAVEWESNGQPENNYKTTPPVLDSDGSFFLYSKLTVDKSRWQQGNVFSCSVMHEALHNHYTQKSLSLSPGGGGGSGGGGSGGGGSEVQLLESGGGLVQPGGSLRLSCAASGFTFSDFWMHWVRQAPGKGLEWISYISGDSGYTNYADSVKGRFTISRDNSKNTLYLQMNSLRAEDTAVYYCARDRPYYYYMDVWGKGTTVTVSSGGGGSGGGGSGGGGSGGGGSDIQMTQSPSSLSASVGDRVTITCRASQSVSRSLAWYQQKPGKAPKLLIYAASSLQSGVPSRFSGSGSGTDFTLTISSLQPEDFATYYCQQYKSYPVTFGQGTKVEIK
B16: MIAB198 (antibody, human IgG1, kappa)
heavy: B1 heavy with Y105I, T456A
light: B2 light
notes: also called MIAB198-CHO; MIAB198-HEK

Substitutions are numbered along the chain they refer to.

The first assay addresses T1, Human MAdCAM. The assay can be described thus: BLI Octet, AHC capture.
Usually Kd stands for the free concentration of one partner at which half of the binding sites on the other are occupied at equilibrium, for simple one-to-one binding. The low end stands for higher affinity, the high end for lower affinity. The koff is the rate constant with which the complex falls apart. The low end stands for a long-lived complex, the high end for a short-lived complex. The kon is the rate constant with which the complex forms. High values mean faster complex formation, low ones slower complex formation. B1 displayed a Kd of 2690 nM, a koff of 0.314 s⁻¹ and a kon of 117000 M⁻¹ s⁻¹.
As for B2, the Kd was 218 nM, the koff is 0.0851 s⁻¹ and the kon turned out to be 391000 M⁻¹ s⁻¹.
Consider B3, for which the binding result is “no binding (tested: 1 µM)”.
As for B4, the affinity, expressed as Kd, was 362 nM; the “fold reduction of affinity vs PRNT1” value was determined as 20 fold; the koff amounted to 0.0599 s⁻¹; the kon turned out to be 166000 M⁻¹ s⁻¹.
For B5, the binding result was “no binding (tested: 150 nM)”.
On to B6, for which the Kd is 119 nM, the “fold reduction of affinity vs PRNT1” value is 10 fold, the koff was found to be 0.0267 s⁻¹ and the kon amounted to 226000 M⁻¹ s⁻¹.
The corresponding values for B7 are 563 nM, 40 fold, 0.0818 s⁻¹ and 145000 M⁻¹ s⁻¹.
B8 came in with a Kd of 519 nM, a koff of 0.22 s⁻¹ and a kon of 372000 M⁻¹ s⁻¹.
Turning to B9, binding was characterised by a dissociation constant (Kd) of 2960 nM, the koff is 0.292 s⁻¹ and the association rate constant (kon) stood at 98700 M⁻¹ s⁻¹.
On to B10, for which the Kd is 22.6 nM, the koff turned out to be 0.0106 s⁻¹ and the kon was 471000 M⁻¹ s⁻¹.

A further assay deals with T2, Insulin (UniProt P01308 25-54; P01308 90-110).
T2 construct: Polyreactivity antigen; mature insulin has A and B chains; also called human insulin
The assay can be described thus: ELISA on insulin-coated plate, 100 nM. As for the experimental part: Non-specific DNA and Insulin binding is predictive of poor pharmacokinetics (PK). An immunosorbent plate was coated with dsDNA at a concentration of 1 μg/mL or Insulin at 5 μg/mL in PBS pH 7.4, 75 μl/well, and incubated overnight at 4° C. Wells were washed with PBS pH 7.4 containing 0.05% Tween-20 (wash buffer) three times, and then blocked with 200 μl/well 1% BSA in PBS pH 7.4 (block buffer) for two hours at room temperature. […] The diluted material was added to the DNA/insulin coated plate at 75 μl/well for 1 hour at room temperature. After three washes with wash buffer, a donkey anti-human FcY HRP conjugated polyclonal antibody, diluted to 1:5000 in assay buffer, was added to the plate at 75 μl/well for 1 hr at room temperature. After three washes with wash buffer and three washes with wash buffer (with no tween-20), the assay was developed with TMB, and stopped with 1N HCL. OD 450 nm was measured. The experiment included appropriate controls for non-specific binding of test articles to the plate/block in the absence of DNA or insulin.
Regarding B1, the Insulin polyreactivity score is 3.63.
Regarding B3, the Insulin polyreactivity score stood at 4.73.
B11 returned an Insulin polyreactivity score of 2.08.
Regarding B12, the Insulin polyreactivity score is 2.43.
Regarding B13, the Insulin polyreactivity score is 2.67.
Regarding B14, the Insulin polyreactivity score worked out at 1.99.
The same measure, in the same setting: to B9 belongs 3.63; to B15, 8.43.

The next assay deals with T2, Insulin. The assay can be described thus: ELISA on insulin-coated plate. Background: An ELISA detects its analyte on a solid surface through an enzyme-linked reagent.
As to B1, the binding result is listed as “no binding (tested: 100 nM)”.
The same measure, in the same setting: to B3 belongs “no binding (tested: 100 nM)”; to B11, “no binding (tested: 100 nM)”.
Consider B5, for which the binding result is listed as “no binding (tested: 100 nM)”.
The same measure, in the same setting: to B16 belongs “no binding (tested: 100 nM)”.
In the case of B12, the binding result is given as “no binding (tested: 100 nM)”.
For B13, the binding result is “no binding (tested: 100 nM)”.
On to B14, for which the binding result is recorded as “no binding (tested: 100 nM)”.
For the molecule B9, the binding result is given as “no binding (tested: 100 nM)”.
On the same count and under the same terms, for B15 the value was “no binding (tested: 100 nM)”.
